Test results published in article PMC6208366, “Structure and pro-toxic mechanism of the human Hsp90/PPIase/Tau complex” (Nature Communications, 2018).

What was measured:
[1] = biological target: T1, full-length human Tau (htau40, 441 residues, 2N4R) (human, UniProt P10636-8 1-441); assay: NMR titration; 1H-15N spectra of 15N-labeled Tau (30-50 μM) with up to 5 equivalents of unlabeled partner, 5 °C, 50 mM sodium phosphate/10 mM NaCl/1 mM DTT pH 6.8; settings: both partners purified
T1 construct: 15N-labelled for the NMR titrations; also called 2N4R Tau; source: E. coli BL21 (DE3), vector pNG2, purified (boiling, SP-Sepharose)

human full-length Hsp90β = biological target: T2, human full-length Hsp90β (human, UniProt P08238 1-724); assay: paramagnetic NMR (pseudo-contact shifts); 80 μM Ile-labelled Hsp90 with 40 μM CLaNP-7-tagged FKBP51 mutant (Tm3+ against Lu3+), 25 °C, 50 mM sodium phosphate/300 mM NaCl pH 7.2 in D2O; settings: both partners purified
T2 construct: Human Hsp90β (heat-shock protein 90 beta), full length, dimer; For NMR, Ile δ1 methyl-labelled in a deuterated background or unlabelled; nothing is said for Hsp90; also called heat-shock protein 90; Hsp90 dimer; source: E. coli BL21 (DE3) or Rosetta 2 (DE3), purified (Ni-NTA, SEC)
T2 sequence (P08238 whole entry): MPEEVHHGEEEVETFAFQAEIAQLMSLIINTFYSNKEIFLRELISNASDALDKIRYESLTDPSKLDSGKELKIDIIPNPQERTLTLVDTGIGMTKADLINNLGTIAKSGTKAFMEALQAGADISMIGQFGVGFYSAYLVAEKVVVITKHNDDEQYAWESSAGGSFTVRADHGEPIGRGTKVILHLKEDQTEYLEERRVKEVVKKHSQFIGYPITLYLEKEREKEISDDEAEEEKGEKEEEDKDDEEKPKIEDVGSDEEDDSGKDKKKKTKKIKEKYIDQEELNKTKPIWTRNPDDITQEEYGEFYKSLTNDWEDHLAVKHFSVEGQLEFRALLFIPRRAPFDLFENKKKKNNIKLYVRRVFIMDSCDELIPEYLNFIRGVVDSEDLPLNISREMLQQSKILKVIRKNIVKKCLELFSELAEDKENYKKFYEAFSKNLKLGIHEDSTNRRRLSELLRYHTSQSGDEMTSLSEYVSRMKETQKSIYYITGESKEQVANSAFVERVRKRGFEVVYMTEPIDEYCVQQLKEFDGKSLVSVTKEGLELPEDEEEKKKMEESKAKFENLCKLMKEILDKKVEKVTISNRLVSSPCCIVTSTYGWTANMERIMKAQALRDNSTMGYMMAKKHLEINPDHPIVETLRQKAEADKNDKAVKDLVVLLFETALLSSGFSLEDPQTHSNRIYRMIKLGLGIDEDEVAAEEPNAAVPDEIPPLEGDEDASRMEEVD

T1 sequence (P10636 other isoform, or with tags, fused parts or gaps): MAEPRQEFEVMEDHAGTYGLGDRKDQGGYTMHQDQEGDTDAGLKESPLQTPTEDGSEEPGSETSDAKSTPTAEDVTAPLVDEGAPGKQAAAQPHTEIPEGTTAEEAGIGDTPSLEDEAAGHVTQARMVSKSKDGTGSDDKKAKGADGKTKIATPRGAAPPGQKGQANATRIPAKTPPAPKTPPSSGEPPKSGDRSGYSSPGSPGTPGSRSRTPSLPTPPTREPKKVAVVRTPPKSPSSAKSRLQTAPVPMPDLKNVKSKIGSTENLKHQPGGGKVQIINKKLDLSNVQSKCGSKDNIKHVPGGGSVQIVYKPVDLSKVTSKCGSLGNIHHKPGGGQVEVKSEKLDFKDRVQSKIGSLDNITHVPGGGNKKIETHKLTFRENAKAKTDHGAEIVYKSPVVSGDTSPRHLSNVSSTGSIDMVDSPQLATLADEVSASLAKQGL

| Binder | binding result [1] | binding result (human full-length Hsp90β) |
| --- | --- | --- |
| full-length human FKBP51 (natural protein, UniProt Q13451 1-457, looked up, For NMR, Leu/Val or Ala/Met methyl-labelled or unlabelled; also called PPIase; source: E. coli BL21 (DE3) or Rosetta 2 (DE3), purified (Ni-NTA, HRV3C cut, SEC)) MTTDEGAKNNEESPTATVAEQGEDITSKKDRGVLKIVKRVGNGEETPMIGDKVYVHYKGKLSNGKKFDSSHDRNEPFVFSLGKGQVIKAWDIGVATMKKGEICHLLCKPEYAYGSAGSLPKIPSNATLFFEIELLDFKGEDLFEDGGIIRRTKRKGEGYSNPNEGATVEIHLEGRCGGRMFDCRDVAFTVGEGEDHDIPIGIDKALEKMQREEQCILYLGPRYGFGEAGKPKFGIEPNAELIYEVTLKSFEKAKESWEMDTKEKLEQAAIVKEKGTVYFKGGKYMQAVIQYGKIVSWLEMEYGLSEKESKASESFLLAAFLNLAMCYLKLREYTKAVECCDKALGLDSANEKGLYRRGEAQLLMNEFESAKGDFEKVLEVNPQNKAARLQISMCQKKAKEHNERDRRIYANMFKKFAEQDAKEEANKAMGKKTSEGVTNEKGTDSQAMEEEKPEGHV | binds | – |
| CLaNP-7-tagged FKBP51 C176S/C183S/C215S/C339S/C394S/E110C (natural protein, human, UniProt Q13451 1-457, looked up, CLaNP-7 lanthanide tag (Tm3+ or Lu3+) attached to C107 and C110 (E110C) in FK1, Human FKBP51, full length, with E110C and all cysteines other than C107 removed; also called FKBP51_(C176S/C183S/C215S/C339S/C394S/E110C)-CLaNP-7; source: E. coli, purified as the wild-type protein, tagged with CLaNP-7) MTTDEGAKNNEESPTATVAEQGEDITSKKDRGVLKIVKRVGNGEETPMIGDKVYVHYKGKLSNGKKFDSSHDRNEPFVFSLGKGQVIKAWDIGVATMKKGEICHLLCKPCYAYGSAGSLPKIPSNATLFFEIELLDFKGEDLFEDGGIIRRTKRKGEGYSNPNEGATVEIHLEGRSGGRMFDSRDVAFTVGEGEDHDIPIGIDKALEKMQREEQSILYLGPRYGFGEAGKPKFGIEPNAELIYEVTLKSFEKAKESWEMDTKEKLEQAAIVKEKGTVYFKGGKYMQAVIQYGKIVSWLEMEYGLSEKESKASESFLLAAFLNLAMCYLKLREYTKAVESCDKALGLDSANEKGLYRRGEAQLLMNEFESAKGDFEKVLEVNPQNKAARLQISMSQKKAKEHNERDRRIYANMFKKFAEQDAKEEANKAMGKKTSEGVTNEKGTDSQAMEEEKPEGHV | – | binds |
